Experimental data as given in the RNAGym collection of RNA variant scans (doi:10.1093/nar/gkz1192).

B1: CPEB3 Ribozyme (parent)
chain: UAACAGGGGGCCACAGCAGAAGCGUUCACGUCGCAGCCCCUGUCAGAUUCUGGUGAAUCUGCGAAUUCUGCUGUAUAUCUC

Variants of: B1
Experiment: self-cleavage, relative activity (ratio to wild type); higher = more cleavage; in vitro, sequencing
Procedure, shortened: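 CPEB3 self-cleaving ribozyme mutant libraries were made by rounds of error-prone PCR, barcoded, and transcribed in vitro with T7 RNA polymerase for 5 hours at 37°C. Cleavage occurred during transcription and a 15 min DNase I step before EDTA stop. RNAs were reverse transcribed with template switching and Illumina-sequenced, with DNA sequencing mapping barcodes to variants. Relative activity is the variant's cleaved/total read fraction divided by wild type's (minimum 5 reads), averaged across three batches.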
UAACAGGGGGCCACAGCAGAAGCGUUCACGUCGCUGCCCCUGCCAGAUUCUGGUGAAUCUGCGAAUUCUGCUGUAUAUCUC [A35U U43C] gave a self-cleavage of 0.35. For UAACAGGGGGCCACAGCAGAAGCGUUCACGUCGCUGCCCCUGGCAGAUUCUGGUGAAUCUGCGAAUUCUGCUGUAUAUCUC [A35U U43G], the self-cleavage was 0.15. Work on UAACAGGGGGCCACAGCAGAAGCGUUCACGUCGCUGCCCCUGACAGAUUCUGGUGAAUCUGCGAAUUCUGCUGUAUAUCUC [A35U U43A] yielded a self-cleavage of 0.71. UAACAGGGGGCCACAGCAGAAGCGUUCACGUCGCUGCCCCUGUCAGAUUCUGGUGAAUCUGCGAAUUCUGCUAUAUAUCUC [A35U G73A] showed a self-cleavage of 0.88. UAACAGGGGGCCACAGCAGAAGCGUUCACGUCGCUGCCCCUGUCAGACUCUGGUGAAUCUGCGAAUUCUGCUGUAUAUCUC [A35U U48C] gave a self-cleavage of 0.32. In the case of UAACAGGGGGCCACAGCAGAAGCGUUCACGUCGCUGCCCCUGUCAGAAUCUGGUGAAUCUGCGAAUUCUGCUGUAUAUCUC [A35U U48A], the self-cleavage is reported as 0.32. Work on UAACAGGGGGCCACAGCAGAAGCGUUCACGUCGCUGCCCCUGUCAGAGUCUGGUGAAUCUGCGAAUUCUGCUGUAUAUCUC [A35U U48G] yielded a self-cleavage of 0.26. UAACAGGGGGCCACAGCAGAAGCGUUCACGUCGCUGCCCCUGUCAGAUUCUGGGGAAUCUGCGAAUUCUGCUGUAUAUCUC [A35U U54G] gave a self-cleavage of 0.58. UAACAGGGGGCCACAGCAGAAGCGUUCACGUCGCUGCCCCUGUCAGAUUCUGGCGAAUCUGCGAAUUCUGCUGUAUAUCUC [A35U U54C] showed a self-cleavage of 0.5. UAACAGGGGGCCACAGCAGAAGCGUUCACGUCGCUGCCCCUGUCAGAUUCUGGAGAAUCUGCGAAUUCUGCUGUAUAUCUC [A35U U54A] showed a self-cleavage of 0.55. UAACAGGGGGCCACAGCAGAAGCGUUCACGUCGCUGCCCCUGUCAGAUUCUGGUGAAUCUGCGAAGUCUGCUGUAUAUCUC [A35U U66G] gave a self-cleavage of 0.13. UAACAGGGGGCCACAGCAGAAGCGUUCACGUCGCUGCCCCUGUCAGAUUCUGGUGAAUCUGCGAACUCUGCUGUAUAUCUC [A35U U66C] gave a self-cleavage of 0.25. Work on UAACAGGGGGCCACAGCAGAAGCGUUCACGUCGCUGCCCCUGUCAGAUUCUGGUGAAUCUGCGAAAUCUGCUGUAUAUCUC [A35U U66A] yielded a self-cleavage of 0.34. With UAACAGGGGGCCACAGCAGAAGCGUUCACGUCGCUGCCCCUGUCAGAUUCUGGUGAAUCAGCGAAUUCUGCUGUAUAUCUC [A35U U60A] the self-cleavage was 0.25. UAACAGGGGGCCACAGCAGAAGCGUUCACGUCGCUGCCCCUGUCAGAUUCUGGUGAAUCCGCGAAUUCUGCUGUAUAUCUC [A35U U60C] showed a self-cleavage of 0.24. UAACAGGGGGCCACAGCAGAAGCGUUCACGUCGCUGCCCCUGUCAGAUUCUGGUGAAUCGGCGAAUUCUGCUGUAUAUCUC [A35U U60G] showed a self-cleavage of 0.17. Variant UAACAGGGGGCCACAGCAGAAGCGUUCACGUCGCUGCCCCUGUCAGAUUCUGGUGAAGCUGCGAAUUCUGCUGUAUAUCUC [A35U U58G] has a self-cleavage of 0.15. For UAACAGGGGGCCACAGCAGAAGCGUUCACGUCGCUGCCCCUGUCAGAUUCUGGUGAAACUGCGAAUUCUGCUGUAUAUCUC [A35U U58A], the self-cleavage was 0.32. In the case of UAACAGGGGGCCACAGCAGAAGCGUUCACGUCGCUGCCCCUGUCAGAUUCUGGUGAACCUGCGAAUUCUGCUGUAUAUCUC [A35U U58C], the self-cleavage is reported as 0.27. With UAACAGGGGGCCACAGCAGAAGCGUUCACGUCGCUGCCCCUGUCAGAUUCUGGUGAAUCUGCGAAUUCCGCUGUAUAUCUC [A35U U69C] the self-cleavage was 0.23. For UAACAGGGGGCCACAGCAGAAGCGUUCACGUCGCUGCCCCUGUCAGAUUCUGGUGAAUCUGCGAAUUCAGCUGUAUAUCUC [A35U U69A], the self-cleavage was 0.26. Variant UAACAGGGGGCCACAGCAGAAGCGUUCACGUCGCUGCCCCUGUCAGAUUCUGGUGAAUCUGCGAAUUCGGCUGUAUAUCUC [A35U U69G] has a self-cleavage of 0.26. UAACAGGGGGCCACAGCAGAAGCGUUCACGUCGCUGCCCCGGUCAGAUUCUGGUGAAUCUGCGAAUUCUGCUGUAUAUCUC [A35U U41G] gave a self-cleavage of 0.32. For UAACAGGGGGCCACAGCAGAAGCGUUCACGUCGCUGCCCCCGUCAGAUUCUGGUGAAUCUGCGAAUUCUGCUGUAUAUCUC [A35U U41C], the self-cleavage was 0.5. UAACAGGGGGCCACAGCAGAAGCGUUCACGUCGCUGCCCCAGUCAGAUUCUGGUGAAUCUGCGAAUUCUGCUGUAUAUCUC [A35U U41A] gave a self-cleavage of 0.3. UAACAGGGGGCCACAGCAGAAGCGUUCACGUCGCUGCCCCUGUCAGAUCCUGGUGAAUCUGCGAAUUCUGCUGUAUAUCUC [A35U U49C] showed a self-cleavage of 0.27. Variant UAACAGGGGGCCACAGCAGAAGCGUUCACGUCGCUGCCCCUGUCAGAUACUGGUGAAUCUGCGAAUUCUGCUGUAUAUCUC [A35U U49A] has a self-cleavage of 0.39. In the case of UAACAGGGGGCCACAGCAGAAGCGUUCACGUCGCUGCCCCUGUCAGAUUCGGGUGAAUCUGCGAAUUCUGCUGUAUAUCUC [A35U U51G], the self-cleavage is reported as 0.47. Variant UAACAGGGGGCCACAGCAGAAGCGUUCACGUCGCUGCCCCUGUCAGAUUCCGGUGAAUCUGCGAAUUCUGCUGUAUAUCUC [A35U U51C] has a self-cleavage of 0.46. In the case of UAACAGGGGGCCACAGCAGAAGCGUUCACGUCGCUGCCCCUGUCAGAUUCAGGUGAAUCUGCGAAUUCUGCUGUAUAUCUC [A35U U51A], the self-cleavage is reported as 0.56. Variant UAACAGGGGGCCACAGCAGAAGCGUUCACGUCGCUGCCCCUGUCAGAUUCUGGUGAAUCUGCGAAUUCUGCAGUAUAUCUC [A35U U72A] has a self-cleavage of 0.31. Variant UAACAGGGGGCCACAGCAGAAGCGUUCACGUCGCUGCCCCUGUCAGAUUCUGGUGAAUCUGCGAAUGCUGCUGUAUAUCUC [A35U U67G] has a self-cleavage of 0.35. Variant UAACAGGGGGCCACAGCAGAAGCGUUCACGUCGCUGCCCCUGUCAGAUUCUGGUGAAUCUGCGAAUCCUGCUGUAUAUCUC [A35U U67C] has a self-cleavage of 0.21. For UAACAGGGGGCCACAGCAGAAGCGUUCACGUCGCUGCCCCUGUCAGAUUCUGGUGAAUCUGCGAAUACUGCUGUAUAUCUC [A35U U67A], the self-cleavage was 0.24.
